In article PMC6624267:

Target: CARD11^8–172 (human) (UniProt Q9BXL7)
Test: SEC-MALS; CARD11^8–172 alone; measured 36.5 kDa against 39.4 kDa expected for a dimer

Substance “CARD11^8–172 (from UniProt Q9BXL7 8-172) (domain or fragment)” has a stoichiometry N of 2.
